Measured values as given in patent publication US20120207673A1.

The substances below were run against protein A (UniProt P38507) (assay: phage ELISA on coated protein A; signal after 80 C 10 min then 4 C 10 min as % of the untreated sample (heat/cool assay)).

DP47 VH with CDR2 of HEL4, sequence (VH): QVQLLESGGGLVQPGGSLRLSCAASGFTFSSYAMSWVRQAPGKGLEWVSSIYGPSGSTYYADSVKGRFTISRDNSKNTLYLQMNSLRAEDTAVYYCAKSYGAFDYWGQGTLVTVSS

Substance | Retained binding to protein A
DP47 VH with CDR2 of HEL4 | 4%
DP47 VH with CDR3 of HEL4 | 3%

The substances below were run against protein A (UniProt P38507) (assay: phage ELISA on coated protein A; heat/cool assay, % of untreated sample).

Substance | Retained binding to protein A
DP47 VH SYA31-33DED | 67%

What follows are substances tested against protein A (UniProt P38507) (assay: phage ELISA on coated protein A; heat/cool assay, % of untreated sample (n = 2)).

Substance | Retained binding to protein A (%)
DP47 VH SYA31-33DED | 69%
DP47 VH SYA_31-33_DDD | 66%
DP47 VH SY_31/32_DE | 50%
DP47 VH YA_32/33_DD | 64%

Further lines, results first:

Retained binding to protein A (%) | Substance
52% | DP47 VH SA_31/33_DD
62% | DP47 VH SY_31/32_DD
59% | DP47 VH YA_32/33_ED
